T1: IPO5 (Homo sapiens), O00410
T1 chain: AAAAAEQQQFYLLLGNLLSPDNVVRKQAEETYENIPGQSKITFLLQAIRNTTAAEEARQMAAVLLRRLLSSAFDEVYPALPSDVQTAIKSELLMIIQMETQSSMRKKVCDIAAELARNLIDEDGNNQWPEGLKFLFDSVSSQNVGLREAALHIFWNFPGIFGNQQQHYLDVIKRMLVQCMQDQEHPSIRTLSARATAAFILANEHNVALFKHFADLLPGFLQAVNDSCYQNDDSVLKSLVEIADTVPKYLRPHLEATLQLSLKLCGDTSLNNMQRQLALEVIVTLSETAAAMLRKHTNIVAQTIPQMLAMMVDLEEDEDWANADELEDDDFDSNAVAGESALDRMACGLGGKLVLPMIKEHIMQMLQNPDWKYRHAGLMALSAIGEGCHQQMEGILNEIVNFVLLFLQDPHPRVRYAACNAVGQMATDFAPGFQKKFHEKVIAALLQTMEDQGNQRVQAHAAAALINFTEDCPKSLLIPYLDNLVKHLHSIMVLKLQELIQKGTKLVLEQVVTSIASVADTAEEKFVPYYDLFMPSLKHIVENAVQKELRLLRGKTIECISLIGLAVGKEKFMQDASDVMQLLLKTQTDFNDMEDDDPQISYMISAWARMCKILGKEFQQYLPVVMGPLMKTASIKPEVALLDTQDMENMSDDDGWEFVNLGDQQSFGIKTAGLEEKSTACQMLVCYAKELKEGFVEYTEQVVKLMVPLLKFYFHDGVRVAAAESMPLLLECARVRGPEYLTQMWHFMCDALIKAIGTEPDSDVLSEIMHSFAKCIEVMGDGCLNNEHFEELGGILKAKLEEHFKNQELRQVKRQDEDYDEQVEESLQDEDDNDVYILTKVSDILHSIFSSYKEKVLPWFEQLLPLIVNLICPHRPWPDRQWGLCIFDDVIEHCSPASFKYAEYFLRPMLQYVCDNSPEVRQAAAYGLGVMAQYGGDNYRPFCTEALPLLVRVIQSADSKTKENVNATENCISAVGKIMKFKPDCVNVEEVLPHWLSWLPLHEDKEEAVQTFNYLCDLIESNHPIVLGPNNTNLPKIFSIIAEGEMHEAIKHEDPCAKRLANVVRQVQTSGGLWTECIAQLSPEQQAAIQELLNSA


What was measured:
[1] = biological target: T1, IPO5 (Homo sapiens), O00410; details: modification not given
[2] = biological target: Core NLS 4 synthetic peptide (fused to penetratin) (hepatitis C virus | not stated); experiment: ELISA; plates coated with synthetic peptide (10 µg/ml, carbonate buffer pH 9.6); increasing concentrations of recombinant NTF, 2 h, room temperature; anti-HIS detection; apparent Kd; details: remark: other sources report otherwise
[3] = biological target: NS3 NLS 1 synthetic peptide (fused to penetratin) (hepatitis C virus | not stated); experiment: as above; details: remark: other sources report otherwise
[4] = biological target: NS3 NLS 2 synthetic peptide (fused to penetratin) (hepatitis C virus | not stated); experiment: as above; details: remark: other sources report otherwise
[5] = biological target: NS5A NLS synthetic peptide (fused to penetratin) (hepatitis C virus | not stated); experiment: as above; details: remark: other sources report otherwise

Row | Binder | Kd [1] | Kd [2] | Kd [3] | Kd [4] | Kd [5]
1 | TRQARRNRRRRWRERQR [HIV-1 Rev NLS peptide NLS peptide, P04325] | 44 nM |  |  |  | 
2 | recombinant IPO5 (importin β3/kap β3), O00410-1 1-1097 (natural protein) MAAAAAEQQQFYLLLGNLLSPDNVVRKQAEETYENIPGQSKITFLLQAIRNTTAAEEARQMAAVLLRRLLSSAFDEVYPALPSDVQTAIKSELLMIIQMETQSSMRKKVCDIAAELARNLIDEDGNNQWPEGLKFLFDSVSSQNVGLREAALHIFWNFPGIFGNQQQHYLDVIKRMLVQCMQDQEHPSIRTLSARATAAFILANEHNVALFKHFADLLPGFLQAVNDSCYQNDDSVLKSLVEIADTVPKYLRPHLEATLQLSLKLCGDTSLNNMQRQLALEVIVTLSETAAAMLRKHTNIVAQTIPQMLAMMVDLEEDEDWANADELEDDDFDSNAVAGESALDRMACGLGGKLVLPMIKEHIMQMLQNPDWKYRHAGLMALSAIGEGCHQQMEGILNEIVNFVLLFLQDPHPRVRYAACNAVGQMATDFAPGFQKKFHEKVIAALLQTMEDQGNQRVQAHAAAALINFTEDCPKSLLIPYLDNLVKHLHSIMVLKLQELIQKGTKLVLEQVVTSIASVADTAEEKFVPYYDLFMPSLKHIVENAVQKELRLLRGKTIECISLIGLAVGKEKFMQDASDVMQLLLKTQTDFNDMEDDDPQISYMISAWARMCKILGKEFQQYLPVVMGPLMKTASIKPEVALLDTQDMENMSDDDGWEFVNLGDQQSFGIKTAGLEEKSTACQMLVCYAKELKEGFVEYTEQVVKLMVPLLKFYFHDGVRVAAAESMPLLLECARVRGPEYLTQMWHFMCDALIKAIGTEPDSDVLSEIMHSFAKCIEVMGDGCLNNEHFEELGGILKAKLEEHFKNQELRQVKRQDEDYDEQVEESLQDEDDNDVYILTKVSDILHSIFSSYKEKVLPWFEQLLPLIVNLICPHRPWPDRQWGLCIFDDVIEHCSPASFKYAEYFLRPMLQYVCDNSPEVRQAAAYGLGVMAQYGGDNYRPFCTEALPLLVRVIQSADSKTKENVNATENCISAVGKIMKFKPDCVNVEEVLPHWLSWLPLHEDKEEAVQTFNYLCDLIESNHPIVLGPNNTNLPKIFSIIAEGEMHEAIKHEDPCAKRLANVVRQVQTSGGLWTECIAQLSPEQQAAIQELLNSA |  | 105 nM | 33.8 nM | 35.8 nM | 32.3 nM

Source: paper PMC4259358, “Functional Characterization of Nuclear Localization and Export Signals in Hepatitis C Virus Proteins and Their Role in the Membranous Web” (PLoS ONE, 2014)
